According to patent US20030064916A1:

Target: HLA-A2.1 (human), A*02:0
Assay: cell-based or functional assay

Specific 51Cr release (%) by CTL A2 149, E:T 10, BT 549 targets, with anti-A2 (53 without): 37%
Specific 51Cr release (%) by CTL A2 149, E:T 10, MCF7 targets, with anti-A2 (38 without): 13%
Specific 51Cr release (%) by CTL A2 149, E:T 10, MDA 231 targets, with anti-A2 (24 without): 5%
Specific 51Cr release (%) by CTL A2 149, E:T 10, Ramos A2.1 targets, with anti-A2 (39 without): 12%
Specific 51Cr release (%) by CTL A2 149, E:T 10, SW 480 targets, with anti-A2 (55 without): 26%
Specific 51Cr release (%) by CTL A2 264, E:T 10, BT 549 targets, with anti-A2 (79 without): 47%
Specific 51Cr release (%) by CTL A2 264, E:T 10, MCF7 targets, with anti-A2 (79 without): 38%
Specific 51Cr release (%) by CTL A2 264, E:T 10, MDA 231 targets, with anti-A2 (31 without): 10%
Specific 51Cr release (%) by CTL A2 264, E:T 10, Ramos A2.1 targets, with anti-A2 (43 without): 0%
Specific 51Cr release (%) by CTL A2 264, E:T 10, SW 480 targets, with anti-A2 (59 without): 17%
Substance: A2-specific monoclonal antibody PA2.1 (ATCC HB 117)
